Results: paper PMC6230950

Tests used:
[1] = biological target: murine TB‐PIGS (Ag85B fused to a truncated mouse γ2a chain and the IgM μ tailpiece), produced in wil (M. tuberculosis | mouse | not stated) (UniProt P9WQP1); test: native gel or EMSA
[2] = biological target: human TB‐PIGS:ΔXF (Ag85B fused to a truncated human γ1 chain and the IgM μ tailpiece), produced in g (M. tuberculosis | human | not stated) (UniProt P9WQP1); test: SPR; Biacore X100, HBS-EP+; TB-PIGS captured on protein A coupled to a CM5 chip; FcγR as analyte, 40 μL/min; affinity of one FcγR for a single arm
[3] = biological target: Human TB-PIGS produced in wild-type Nicotiana benthamiana (Ag85B - truncated human γ1 chain - IgM tailpiece) (Mycobacterium tuberculosis | human | not stated) (UniProt P9WQP1); test: SPR; Biacore X100; protein A on a CM5 chip, IgG or TB-PIGS captured; five-six concentrations of human CD16a as analyte; HBS-EP+; 40 uL/min, contact 90 s, dissociation 300 s; two-state binding interaction model
[4] = biological target: Human TB-PIGS produced in glyco-engineered ΔXF Nicotiana benthamiana (Mycobacterium tuberculosis | human | not stated) (UniProt P9WQP1); test: SPR; Biacore X100; protein A on a CM5 chip, IgG or TB-PIGS captured; human CD32a as analyte, 4000 nM to 125 nM in 2-fold dilutions; HBS-EP+; 40 uL/min, contact 90 s; steady-state affinity analysis
[5] = biological target: Human TB-PIGS produced in wild-type Nicotiana benthamiana (Ag85B - truncated human γ1 chain - IgM tailpiece) (Mycobacterium tuberculosis | human | not stated) (UniProt P9WQP1); test: as above
[6] = biological target: human TB‐PIGS (Ag85B fused to a truncated human γ1 chain and the IgM μ tailpiece), produced in wild‐type N. benthamiana (M. tuberculosis | human | not stated) (UniProt P9WQP1); test: native gel or EMSA
[7] = biological target: Murine TB-PIGS produced in glyco-engineered ΔXF Nicotiana benthamiana (Mycobacterium tuberculosis | mouse | not stated) (UniProt P9WQP1); test: SPR; Biacore X100; protein A amine-coupled on a CM5 chip, IgG or TB-PIGS captured on it; CD64 (human or mouse) as analyte, 240 nM down to 1.875 nM in 1:2 dilutions; HBS-EP+; 40 uL/min, contact 135 s, dissociation 600 s; 1:1 model, but for human TB-PIGS from wild-type plants the 'Heterogeneous antibody with aglycosylation' model (two sets of values)
[8] = biological target: Murine TB-PIGS produced in wild-type Nicotiana benthamiana (Ag85B - truncated mouse γ2a chain - IgM tailpiece) (Mycobacterium tuberculosis | mouse | not stated) (UniProt P9WQP1); test: as above

Molecule “murine TB‐PIGS (Ag85B fused to a truncated mouse γ2a chain and the IgM μ tailpiece), produced in wil (from UniProt P9WQP1 41-325) (Fc fusion)” has a percent of the sample as polymers [1] of 5 to 20%.

“human CD16a (FcγRIIIa) (from UniProt P08637 17-208) (receptor)” gave a Kd [2] of 19.7 nM and a Kd [3] of 279 nM.

With “human CD32a (FcγRIIa) (from UniProt P12318 34-217) (receptor)” the Kd [4] was 2160 nM and the Kd [5] was 4210 nM.

With “human TB‐PIGS (Ag85B fused to a truncated human γ1 chain and the IgM μ tailpiece), produced in wild‐type N. benthamiana (from UniProt P9WQP1 41-325) (Fc fusion)” the percent of the sample as polymers [6] was 35 to 60%.

“human CD64 (FcγRI) (from UniProt P12314 16-292) (receptor)” showed a Kd [2] of 0.41 nM.

B1: mouse CD64 (FcγRI) (receptor)
chain: EVVNATKAVITLQPPWVSIFQKENVTLWCEGPHLPGDSSTQWFINGTAVQISTPSYSIPEASFQDSGEYRCQIGSSMPSDPVQLQIHNDWLLLQASRRVLTEGEPLALRCHGWKNKLVYNVVFYRNGKSFQFSSDSEVAILKTNLSHSGIYHCSGTGRHRYTSAGVSITVKELFTTPVLRASVSSPFPEGSLVTLNCETNLLLQRPGLQLHFSFYVGSKILEYRNTSSEYHIARAEREDAGFYWCEVATEDSSVLKRSPELELQVLGPQSSAP
Work on B1 yielded a Kd [7] of 16.8 nM, a koff [7] of 0.0231 s⁻¹ and a kon [7] of 1.38e+06 M⁻¹ s⁻¹. It also gave a Kd [8] of 50 nM, a koff [8] of 0.0248 s⁻¹ and a kon [8] of 500000 M⁻¹ s⁻¹.
